Measured values as given in EP4803150A2 (Lyvgen Biopharma Holdings Limited, dated 2026).

T1: CD3 (human)
T1 chain: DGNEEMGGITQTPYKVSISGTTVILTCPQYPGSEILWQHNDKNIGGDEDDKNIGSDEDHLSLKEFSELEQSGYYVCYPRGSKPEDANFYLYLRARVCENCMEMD


What was measured:
CD137 = target: T2, CD137 (human, UniProt Q07011 24-186); experiment: FCM or ELISA, graded
T2 construct: Whole on GS-H2-huCD137 reporter cells in the reporter assays; also called 4-1BB

CD3 = target: T1, CD3; experiment: CD3 binding as in Example 2 (ELISA or FCM)

Binder | binding result (CD137) | EC50 (CD3)
Ly2600 (multi-specific antibody, B7H3/CD3/CD137) chain 1: QVQLVQSGAEVKKPGASVKVSCKASGYTFTSYVMHWVRQKPGQGLEWIGYINPYNEGTESTDKFKGRATMTSDKSTSTVYMELSSLRSEDTAVYYCASIYYGYEGTYFGVWGQGTLVTVSSASTKGPSVFPLAPSSKSTSGGTAALGCLVKDYFPEPVTVSWNSGALTSGVHTFPAVLQSSGLYSLSSVVTVPSSSLGTQTYICNVNHKPSNTKVDKKVEPKSCGGGGSGGGGSGGGGSGGGGSEVQLVESGGGLVQPGGSLRLSCAASGFTFSTYAMNWVRQAPGKGLEWVGRIRSKYNNYATYYADSVKGRFTISRDDSKNSLYLQMNSLKTEDTAVYYCVRHGNFGNSYVSWFAYWGQGTLVTVSSGGGGSDKTHTCPPCPAPELLGPSVFLFPPKPKDTLMISRTPEVTCVVVDVSHEDPEVKFNWYVDGVEVHNAKTKPREEQYNSTYRVVSVLTVLHQDWLNGKEYKCKVSNKALGAPIEKTISKAKGQPREPQVYTLPPSREEMTKNQVSLWCLVKGFYPSDIAVEWESNGQPENNYKTTPPVLDSDGSFFLYSKLTVDKSRWQQGNVFSCSVMHEALHNHYTQKSLSLSPGGGGGSGGGGSGGGGSGGGGSQVQLVQSGAEVKKPGASVKVSCKASGYTFAGFEMHWVRQAPGQGLEWMGAIDPKTGGTDYNQKFKDRVTMTRDTSISTAYMELSRLRSDDTAVYYCARDLGYFDVWGQGTLVTVSS chain 2: QVQLVQSGAEVKKPGASVKVSCKASGYTFTSYVMHWVRQKPGQGLEWIGYINPYNEGTESTDKFKGRATMTSDKSTSTVYMELSSLRSEDTAVYYCASIYYGYEGTYFGVWGQGTLVTVSSASTKGPSVFPLAPSSKSTSGGTAALGCLVKDYFPEPVTVSWNSGALTSGVHTFPAVLQSSGLYSLSSVVTVPSSSLGTQTYICNVNHKPSNTKVDKKVEPKSCGGGGSGGGGSGGGGSGGGGSQAVVTQEPSLTVSPGGTVTLTCRSSTGAVTTSNYANWVQQKPGQAPRGLIGGTNKRAPWTPARFSGSLLGGKAALTITGAQAEDEADYYCALWYSNLWVFGGGTKLTVLGGGGSDKTHTCPPCPAPELLGPSVFLFPPKPKDTLMISRTPEVTCVVVDVSHEDPEVKFNWYVDGVEVHNAKTKPREEQYNSTYRVVSVLTVLHQDWLNGKEYKCKVSNKALGAPIEKTISKAKGQPREPQVYTLPPSREEMTKNQVSLSCAVKGFYPSDIAVEWESNGQPENNYKTTPPVLDSDGSFFLVSKLTVDKSRWQQGNVFSCSVMHEALHNHYTQKSLSLSPGGGGGSGGGGSGGGGSGGGGSDIQMTQSPSSLSASVGDRVTITCRASQDIRSNLNWYQQKPGGAVKLLIYYTSRLHSGVPSRFSGSGSGTDYTLTISSLQPEDFATYFCQQSEKLPRTFGGGTKVEIR chain 3: EIVLTQSPATLSLSPGERATLSCRASSSVSYMHWYQQKPGQAPRPWIYATSNLASGIPARFSGSRSGTDYTLTISSLEPEDFAVYYCQQWSSNTLTFGGGTKVEIKRTVAAPSVFIFPPSDEQLKSGTASVVCLLNNFYPREAKVQWKVDNALQSGNSQESVTEQDSKDSTYSLSSTLTLSKADYEKHKVYACEVTHQGLSSPVTKSFNRGEC | binds | 
Ly2936 (multi-specific antibody, B7H3/CD3/CD137) chain 1: QVQLVQSGAEVKKPGASVKVSCKASGYTFTSYVMHWVRQKPGQGLEWIGYINPYNEGTESTDKFKGRATMTSDKSTSTVYMELSSLRSEDTAVYYCASIYYGYEGTYFGVWGQGTLVTVSSASTKGPSVFPLAPSSKSTSGGTAALGCLVKDYFPEPVTVSWNSGALTSGVHTFPAVLQSSGLYSLSSVVTVPSSSLGTQTYICNVNHKPSNTKVDKKVEPKSCGGGGSGGGGSGGGGSGGGGSEVQLVESGGGLVQPGGSLRLSCAASGFTFSTYAMNWVRQAPGKGLEWVGRIRSKYNNYATYYADSVKGRFTISRDDSKNSLYLQMNSLKTEDTAVYYCVRHGNFGNSYVSWFAYWGQGTLVTVSSGGGGSDKTHTCPPCPAPELLGPSVFLFPPKPKDTLMISRTPEVTCVVVDVSHEDPEVKFNWYVDGVEVHNAKTKPREEQYNSTYRVVSVLTVLHQDWLNGKEYKCKVSNKALGAPIEKTISKAKGQPREPQVYTLPPSREEMTKNQVSLWCLVKGFYPSDIAVEWESNGQPENNYKTTPPVLDSDGSFFLYSKLTVDKSRWQQGNVFSCSVMHEALHNHYTQKSLSLSPGKGGGGSGGGGSGGGGSGGGGSQVQLVQSGAEVKKPGASVKVSCKASGYTFAGFEMHWVRQAPGQGLEWMGAIDPKTGGTDYNQKFKDRVTMTRDTSISTAYMELSRLRSDDTAVYYCARDLGYFDVWGQGTLVTVSS chain 2: QVQLVQSGAEVKKPGASVKVSCKASGYTFTSYVMHWVRQKPGQGLEWIGYINPYNEGTESTDKFKGRATMTSDKSTSTVYMELSSLRSEDTAVYYCASIYYGYEGTYFGVWGQGTLVTVSSASTKGPSVFPLAPSSKSTSGGTAALGCLVKDYFPEPVTVSWNSGALTSGVHTFPAVLQSSGLYSLSSVVTVPSSSLGTQTYICNVNHKPSNTKVDKKVEPKSCGGGGSGGGGSGGGGSGGGGSQAVVTQEPSLTVSPGGTVTLTCRSSTGAVTTSNYANWVQQKPGQAPRGLIGGTNKRAPWTPARFSGSLLGGKAALTITGAQAEDEADYYCALWYSNLWVFGGGTKLTVLGGGGSDKTHTCPPCPAPELLGPSVFLFPPKPKDTLMISRTPEVTCVVVDVSHEDPEVKFNWYVDGVEVHNAKTKPREEQYNSTYRVVSVLTVLHQDWLNGKEYKCKVSNKALGAPIEKTISKAKGQPREPQVYTLPPSREEMTKNQVSLSCAVKGFYPSDIAVEWESNGQPENNYKTTPPVLDSDGSFFLVSKLTVDKSRWQQGNVFSCSVMHEALHNRFTQKSLSLSPGKGGGGSGGGGSGGGGSGGGGSDIQMTQSPSSLSASVGDRVTITCRASQDIRSNLNWYQQKPGGAVKLLIYYTSRLHSGVPSRFSGSGSGTDYTLTISSLQPEDFATYFCQQSEKLPRTFGGGTKVEIR chain 3: EIVLTQSPATLSLSPGERATLSCRASSSVSYMHWYQQKPGQAPRPWIYATSNLASGIPARFSGSRSGTDYTLTISSLEPEDFAVYYCQQWSSNTLTFGGGTKVEIKRTVAAPSVFIFPPSDEQLKSGTASVVCLLNNFYPREAKVQWKVDNALQSGNSQESVTEQDSKDSTYSLSSTLTLSKADYEKHKVYACEVTHQGLSSPVTKSFNRGEC | binds | 
Ly1966 (multi-specific antibody, CD19/CD3/CD137) chain 1: QVQLQQSGAELVRPGSSVKISCKASGYAFSSYWMNWVKQRPGQGLEWIGQIWPGDGDTNYNGKFKGKATLTADESSSTAYMQLSSLASEDSAVYFCARRETTTVGRYYYAMDYWGQGTTVTVSSASTKGPSVFPLAPSSKSTSGGTAALGCLVKDYFPEPVTVSWNSGALTSGVHTFPAVLQSSGLYSLSSVVTVPSSSLGTQTYICNVNHKPSNTKVDKKVEPKSCGGGGSGGGGSGGGGSGGGGSEVQLVESGGGLVQPGGSLRLSCAASGFTFSTYAMNWVRQAPGKGLEWVGRIRSKYNNYATYYADSVKGRFTISRDDSKNSLYLQMNSLKTEDTAVYYCVRHGNFGNSYVSWFAYWGQGTLVTVSSGGGGSDKTHTCPPCPAPEAAGPSVFLFPPKPKDTLMISRTPEVTCVVVDVSHEDPEVKFNWYVDGVEVHNAKTKPREEQYNSTYRVVSVLTVLHQDWLNGKEYKCKVSNKALPAPIEKTISKAKGQPREPQVYTLPPSREEMTKNQVSLWCLVKGFYPSDIAVEWESNGQPENNYKTTPPVLDSDGSFFLYSKLTVDKSRWQQGNVFSCSVMHEALHNHYTQKSLSLSPGGGGGSGGGGSGGGGSGGGGSQVQLVQSGAEVKKPGASVKVSCKASGYTFAGFEMHWVRQAPGQGLEWMGAIDPKTGGTDYNQKFKDRVTMTRDTSISTAYMELSRLRSDDTAVYYCARDLGYFDVWGQGTLVTVSS chain 2: QVQLQQSGAELVRPGSSVKISCKASGYAFSSYWMNWVKQRPGQGLEWIGQIWPGDGDTNYNGKFKGKATLTADESSSTAYMQLSSLASEDSAVYFCARRETTTVGRYYYAMDYWGQGTTVTVSSASTKGPSVFPLAPSSKSTSGGTAALGCLVKDYFPEPVTVSWNSGALTSGVHTFPAVLQSSGLYSLSSVVTVPSSSLGTQTYICNVNHKPSNTKVDKKVEPKSCGGGGSGGGGSGGGGSGGGGSQAVVTQEPSLTVSPGGTVTLTCRSSTGAVTTSNYANWVQQKPGQAPRGLIGGTNKRAPWTPARFSGSLLGGKAALTITGAQAEDEADYYCALWYSNLWVFGGGTKLTVLGGGGSDKTHTCPPCPAPEAAGPSVFLFPPKPKDTLMISRTPEVTCVVVDVSHEDPEVKFNWYVDGVEVHNAKTKPREEQYNSTYRVVSVLTVLHQDWLNGKEYKCKVSNKALPAPIEKTISKAKGQPREPQVYTLPPSREEMTKNQVSLSCAVKGFYPSDIAVEWESNGQPENNYKTTPPVLDSDGSFFLVSKLTVDKSRWQQGNVFSCSVMHEALHNRFTQKSLSLSPGGGGGSGGGGSGGGGSGGGGSDIQMTQSPSSLSASVGDRVTITCRASQDIRSNLNWYQQKPGGAVKLLIYYTSRLHSGVPSRFSGSGSGTDYTLTISSLQPEDFATYFCQQSEKLPRTFGGGTKVEIR chain 3: not shown |  | 0.348 µg/mL
Ly1967 (multi-specific antibody, CD19/CD3/CD137) chain 1: QVQLQQSGAELVRPGSSVKISCKASGYAFSSYWMNWVKQRPGQGLEWIGQIWPGDGDTNYNGKFKGKATLTADESSSTAYMQLSSLASEDSAVYFCARRETTTVGRYYYAMDYWGQGTTVTVSSASTKGPSVFPLAPSSKSTSGGTAALGCLVKDYFPEPVTVSWNSGALTSGVHTFPAVLQSSGLYSLSSVVTVPSSSLGTQTYICNVNHKPSNTKVDKKVEPKSCGGGGSGGGGSGGGGSGGGGSEVQLVESGGGLVQPGGSLRLSCAASGFTFSTYAMNWVRQAPGKGLEWVGRIRSKYNNYATYYADSVKGRFTISRDDSKNSLYLQMNSLKTEDTAVYYCVRHGNFGNSYVSWFAYWGQGTLVTVSSGGGGSDKTHTCPPCPAPEAAGPSVFLFPPKPKDTLMISRTPEVTCVVVDVSHEDPEVKFNWYVDGVEVHNAKTKPREEQYNSTYRVVSVLTVLHQDWLNGKEYKCKVSNKALPAPIEKTISKAKGQPREPQVYTLPPSREEMTKNQVSLWCLVKGFYPSDIAVEWESNGQPENNYKTTPPVLDSDGSFFLYSKLTVDKSRWQQGNVFSCSVMHEALHNHYTQKSLSLSPGGGGGSGGGGSGGGGSGGGGSQVQLVQSGAEVKKPGASVKVSCKASGYTFAGFEMHWVRQAPGQGLEWMGAIDPKTGGTDYNQKFKDRVTMTRDTSISTAYMELSRLRSDDTAVYYCARDLGYFDVWGQGTLVTVSS chain 2: QVQLQQSGAELVRPGSSVKISCKASGYAFSSYWMNWVKQRPGQGLEWIGQIWPGDGDTNYNGKFKGKATLTADESSSTAYMQLSSLASEDSAVYFCARRETTTVGRYYYAMDYWGQGTTVTVSSASTKGPSVFPLAPSSKSTSGGTAALGCLVKDYFPEPVTVSWNSGALTSGVHTFPAVLQSSGLYSLSSVVTVPSSSLGTQTYICNVNHKPSNTKVDKKVEPKSCGGGGSGGGGSGGGGSGGGGSQAVVTQEPSLTVSPGGTVTLTCRSSTGAVTTSNYANWVQQKPGQAPRGLIGGTNKRAPWTPARFSGSLLGGKAALTITGAQAEDEADYYCALWYSNLWVFGGGTKLTVLGGGGSDKTHTCPPCPAPEAAGPSVFLFPPKPKDTLMISRTPEVTCVVVDVSHEDPEVKFNWYVDGVEVHNAKTKPREEQYNSTYRVVSVLTVLHQDWLNGKEYKCKVSNKALPAPIEKTISKAKGQPREPQVYTLPPSREEMTKNQVSLSCAVKGFYPSDIAVEWESNGQPENNYKTTPPVLDSDGSFFLVSKLTVDKSRWQQGNVFSCSVMHEALHNHYTQKSLSLSPGGGGGSGGGGSGGGGSGGGGSDIQMTQSPSSLSASVGDRVTITCRASQDIRSNLNWYQQKPGGAVKLLIYYTSRLHSGVPSRFSGSGSGTDYTLTISSLQPEDFATYFCQQSEKLPRTFGGGTKVEIR chain 3: not shown |  | 1.56 µg/mL
